B1: mature full-length human sulfite oxidase (WT SOX/SOX homodimer) (enzyme, UniProt P51687 80-545, looked up)
chain: ESTHIYTKEEVSSHTSPETGIWVTLGSEVFDVTEFVDLHPGGPSKLMLAAGGPLEPFWALYAVHNQSHVRELLAQYKIGELNPEDKVAPTVETSDPYADDPVRHPALKVNSQRPFNAEPPPELLTENYITPNPIFFTRNHLPVPNLDPDTYRLHVVGAPGGQSLSLSLDDLHNFPRYEITVTLQCAGNRRSEMTQVKEVKGLEWRTGAISTARWAGARLCDVLAQAGHQLCETEAHVCFEGLDSDPTGTAYGASIPLARAMDPEAEVLLAYEMNGQPLPRDHGFPVRVVVPGVVGARHVKWLGRVSVQPEESYSHWQRRDYKGFSPSVDWETVDFDSAPSIQELPVQSAITEPRDGETVESGEVTIKGYAWSGGGRAVIRVDVSLDGGLTWQVAKLDGEEQRPRKAWAWRLWQLKAPVPAGQKELNIVCKAVDDGYNVQPDTVAPIWNLRGVLSNAWHRVHVYVSP

Experiments:
[1] = target: homodimeric sulfite oxidase Mo domain (Mo/Mo) (human); experiment: SEC
SEC = target: the molecule itself; experiment: SEC

Molecule	stoichiometry N [1]	stoichiometry N (SEC)
homodimeric sulfite oxidase Mo domain (Mo/Mo) (domain or fragment)	2	
B1		2
